Data reported in patent publication US20140234303A1.

Target: mGCSF (R&D Systems Cat#414-CS) (mouse (printed as 'm')) (UniProt P09920)
Assay: cell-based or functional assay

UniProt P09920, sequence (P09920 31-208 limits assumed): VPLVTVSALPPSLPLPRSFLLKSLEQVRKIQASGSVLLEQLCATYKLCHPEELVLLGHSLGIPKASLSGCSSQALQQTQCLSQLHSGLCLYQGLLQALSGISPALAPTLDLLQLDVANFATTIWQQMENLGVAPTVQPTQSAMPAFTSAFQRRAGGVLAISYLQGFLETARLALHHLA

| Substance | inhibition of mG-CSF proliferation of hG-CSFR BaF3 cells (MTS reduction), IC50 |
| --- | --- |
| Neutralizing anti-G-CSF (MAB414), R&D Systems (antibody) | 0.01 nM |
| soluble hG-CSFR-Fc protein (from UniProt Q99062 25-627) (Fc fusion) | 0.022 nM |
